From patent publication US11111484B2, “Streptococcus bacteriophage lysins for detection and treatment of gram positive bacteria” (priority 2011, dated 2021)
Values joined by “and” are separate entries in the source; they are usually repeats but may differ in a detail not shown here. Equal values may be shown once.

Key:
S. epidermidis HN1292 = assay: ΔPlySs1 OD600 lysis, 1 hr, optimal buffering conditions; format: cell-based, Staphylococcus epidermidis
E. faecalis V583 = assay: as above; format: cell-based, Enterococcus faecalis
S. suis ST2 = assay: as above; format: cell-based, Streptococcus suis
Description: (§1) Truncated PlySs1(ΔPlySs1) lysin activity was determined against different cell types. Given the above experiments, the following optimal buffering conditions were employed for all further in vitro experiments with ΔPlySs1: 20 mM phosphate buffer, pH=7.8, 2 mM EDTA. A range of lysin concentrations, from 6.5-130 μg/ml, were introduced to live S. suis cells in this buffer. Three strains were considered particularly relevant: 7711, the serotype 7 strain that encodes PlySs1; S735, the serotype 2 reference strain; and 7997, a highly virulent serotype 9 strain. In terms of bacterial viability, only the highest PlySs1-concentration (130 μg/ml) led to a >90% decrease in CFUs for 7711, S735, and 7997 after 1 hr treatment (TABLE 2). The lysin was also tested against actively-dividing cells in broth culture (strain 7711) (FIG. 20).
(§2) ΔPlySs1 was further tested against a panel of 19 other S. suis strains of diverse serotypes, as well as other species of Gram-positive bacteria. The same lysin concentrations were used as above. For each dosage, the observed lysis values after 1 hr are listed in TABLE 3 and TABLE 4, and the information is summarized graphically in FIG. 21.

S. suis ST9 = assay: as above; format: cell-based, Streptococcus suis
Description: as §1, §2

S. suis ST14 = assay: as above; format: cell-based, Streptococcus suis
Description: as §1, §2

S. suis ST10 = assay: as above; format: cell-based, Streptococcus suis
Description: as §1, §2

S. suis 6388 (ST1) = assay: as above; format: cell-based, Streptococcus suis
Description: as §1, §2

S. suis ST4 = assay: as above; format: cell-based, Streptococcus suis
Description: as §1, §2

S. oralis 35037 = assay: as above; format: cell-based, Streptococcus oralis
[1] = test system: MRSA strain MW2 and S. pyogenes strain MGAS5005; assay: murine septicemia model, mixed MRSA and S. pyogenes infection; format: in vivo, FVB/NJ mice; details: PlySs2 2 mg, ClyS 1 mg + PlyC 1 mg
Description: The Rockefeller University's Institutional Animal Care and Use Committee approved all in vivo protocols. A systemic infection model described in Daniel, A. et al., was used to test for the in vivo efficacy of PlySs2 against multiple gram-positive bacteria. Briefly, 4-5 week old female FVB/NJ mice (weight range 15 to 20 g) were obtained from The Jackson Laboratory (Bar Harbor, Me.). After a period of acclimation, mice were injected intraperitoneally (IP) with 0.5 ml of mid log-phase (OD600 0.5) bacteria diluted with 5% hog gastric mucin (Sigma) in saline. Bacterial suspensions contained ˜5×10^5 CFU/ml of MW2, a PVL toxin-encoding MRSA strain, ˜1×10^7 of MGAS5005, an M1 serotype of Streptococcus pyogenes that is virulent in humans and mice (Musser), or a combination of both bacteria simultaneously at the above concentrations for the mix infection experiments. Actual bacterial inoculation titers were calculated by serial dilution and plating to Columbia blood agar plates for each experiment. […] The survival rate for each experimental group was monitored every 12 hours for the first 24 hours then every 24 hours up to 10 days post-infection. The data were statistically analyzed by Kaplan Meier Survival curves and a Logrank test performed for 95% confidence intervals using the Prism computer program (GraphPad Software; La Jolla, Calif.). […]

MRSA = MRSA wound infection model in rats; details: dorsal wound; 500 μL + 100 μL PlySs2 at 10 mg/mL; after 10 days

B1: ΔPlySs1: truncated PlySs1 lysin, SEQ ID NO:2, N-terminal 254 amino acids: only N-terminal enzymatic and central binding domains (protein, listed as Streptococcus suis)
chain: MTINLETSIRWMSDRVGKVSYSMDYRNGPNSYDCSSAVYYALMAGGAISAGWAVNTEYMHDWLIRNGYVLVAENKPFNAQRHDVCILGKRGYSSGAGGHVVIFVDNVNVIHCNYARNGISIDNYNQVHRGMYYYLYRPANQPSISNKSLDQLVKETLAGVHGNGDTRKASLGSQYEAVMAVINGKASASEKSDEELAREVLAGKHGAGEDRKRSLGPRYEPVQAKVNELLKAKEKPSETAKNEPQTVQFKEDGDL
With B1 as the molecule, how does the “lysis value after 1 hr (treated/untreated OD600 ratio)” value (S. epidermidis HN1292; 6.5 μg/ml) read?
The value was 1.04.

What about the “lysis value after 1 hr (treated/untreated OD600 ratio)” value (S. epidermidis HN1292; 13 μg/ml) of the same molecule?
The value was 1.00.

And the “lysis value after 1 hr (treated/untreated OD600 ratio)” value (S. epidermidis HN1292; 30 μg/ml)?
Its value is 0.96.

And the “lysis value after 1 hr (treated/untreated OD600 ratio)” value (S. epidermidis HN1292; 65 μg/ml)?
The value was 0.94.

And the “lysis value after 1 hr (treated/untreated OD600 ratio)” value (S. epidermidis HN1292; 130 μg/ml)?
The value was 0.87.

What about the “lysis value after 1 hr (treated/untreated OD600 ratio)” value (E. faecalis V583; 6.5 μg/ml) of the same molecule?
Its value is 0.98.

And the “lysis value after 1 hr (treated/untreated OD600 ratio)” value (E. faecalis V583; 13 μg/ml)?
Its value is 0.93.

What about the “lysis value after 1 hr (treated/untreated OD600 ratio)” value (E. faecalis V583; 30 μg/ml) of the same molecule?
Its value is 0.84.

What about the “lysis value after 1 hr (treated/untreated OD600 ratio)” value (E. faecalis V583; 65 μg/ml) of the same molecule?
The value was 0.71.

What about the “lysis value after 1 hr (treated/untreated OD600 ratio)” value (E. faecalis V583; 130 μg/ml) of the same molecule?
The value was 0.52.

And the “1-hour treated/untreated OD600-ratio” value (S. suis ST2; 6.5 μg/ml)?
Its value is 0.79.

What about the “1-hour treated/untreated OD600-ratio” value (S. suis ST2; 13 μg/ml) of the same molecule?
The value was 0.70.

What about the “1-hour treated/untreated OD600-ratio” value (S. suis ST2; 30 μg/ml) of the same molecule?
The value was 0.49.

And the “1-hour treated/untreated OD600-ratio” value (S. suis ST2; 65 μg/ml)?
The value was 0.34.

And the “1-hour treated/untreated OD600-ratio” value (S. suis ST2; 130 μg/ml)?
Its value is 0.17.

What about the “1-hour treated/untreated OD600-ratio” value (S. suis ST9; 6.5 μg/ml) of the same molecule?
The value was 0.50.

And the “1-hour treated/untreated OD600-ratio” value (S. suis ST9; 13 μg/ml)?
Its value is 0.30.

And the “1-hour treated/untreated OD600-ratio” value (S. suis ST9; 30 μg/ml)?
The value was 0.23.

And the “1-hour treated/untreated OD600-ratio” value (S. suis ST9; 65 μg/ml)?
The value was 0.13.

And the “1-hour treated/untreated OD600-ratio” value (S. suis ST9; 130 μg/ml)?
The value was 0.05.

And the “1-hour treated/untreated OD600-ratio” value (S. suis ST14; 6.5 μg/ml)?
The value was 0.79.

What about the “1-hour treated/untreated OD600-ratio” value (S. suis ST14; 13 μg/ml) of the same molecule?
Its value is 0.57.

What about the “1-hour treated/untreated OD600-ratio” value (S. suis ST14; 30 μg/ml) of the same molecule?
The value was 0.33.

And the “1-hour treated/untreated OD600-ratio” value (S. suis ST14; 65 μg/ml)?
The value was 0.15.

What about the “1-hour treated/untreated OD600-ratio” value (S. suis ST14; 130 μg/ml) of the same molecule?
Its value is 0.06.

What about the “1-hour treated/untreated OD600-ratio” value (S. suis ST10; 6.5 μg/ml) of the same molecule?
The value was 0.85.

What about the “1-hour treated/untreated OD600-ratio” value (S. suis ST10; 13 μg/ml) of the same molecule?
Its value is 0.72.

And the “1-hour treated/untreated OD600-ratio” value (S. suis ST10; 30 μg/ml)?
Its value is 0.55.

And the “1-hour treated/untreated OD600-ratio” value (S. suis ST10; 65 μg/ml)?
Its value is 0.44.

What about the “1-hour treated/untreated OD600-ratio” value (S. suis ST10; 130 μg/ml) of the same molecule?
The value was 0.28.

What about the “1-hour treated/untreated OD600-ratio” value (S. suis 6388 (ST1); 6.5 μg/ml) of the same molecule?
Its value is 0.15.

And the “1-hour treated/untreated OD600-ratio” value (S. suis 6388 (ST1); 13 μg/ml)?
Its value is 0.13.

What about the “1-hour treated/untreated OD600-ratio” value (S. suis 6388 (ST1); 30 μg/ml) of the same molecule?
The value was 0.06.

What about the “1-hour treated/untreated OD600-ratio” value (S. suis 6388 (ST1); 65 μg/ml) of the same molecule?
Its value is 0.03.

What about the “1-hour treated/untreated OD600-ratio” value (S. suis 6388 (ST1); 130 μg/ml) of the same molecule?
Its value is 0.02.

What about the “1-hour treated/untreated OD600-ratio” value (S. suis ST4; 6.5 μg/ml) of the same molecule?
The value was 0.63.

And the “1-hour treated/untreated OD600-ratio” value (S. suis ST4; 13 μg/ml)?
Its value is 0.47.

What about the “1-hour treated/untreated OD600-ratio” value (S. suis ST4; 30 μg/ml) of the same molecule?
The value was 0.32.

What about the “1-hour treated/untreated OD600-ratio” value (S. suis ST4; 65 μg/ml) of the same molecule?
Its value is 0.22.

And the “1-hour treated/untreated OD600-ratio” value (S. suis ST4; 130 μg/ml)?
The value was 0.12.

What about the “lysis value after 1 hr (treated/untreated OD600 ratio)” value (S. oralis 35037; 6.5 μg/ml) of the same molecule?
Its value is 0.30.

And the “lysis value after 1 hr (treated/untreated OD600 ratio)” value (S. oralis 35037; 13 μg/ml)?
Its value is 0.13.

And the “lysis value after 1 hr (treated/untreated OD600 ratio)” value (S. oralis 35037; 30 μg/ml)?
The value was 0.08.

What about the “lysis value after 1 hr (treated/untreated OD600 ratio)” value (S. oralis 35037; 65 μg/ml) of the same molecule?
The value was 0.07.

What about the “lysis value after 1 hr (treated/untreated OD600 ratio)” value (S. oralis 35037; 130 μg/ml) of the same molecule?
Its value is 0.04.

B2: PlySs2: Streptococcus suis prophage lysin, SEQ ID NO:3; N-terminal CHAP domain and C-terminal SH3-type 5 domain (protein, listed as Streptococcus suis)
chain: MTTVNEALNNVRAQVGSGVSVGNGECYALASWYERMISPDATVGLGAGVGWVSGAIGDTISAKNIGSSYNWQANGWTVSTSGPFKAGQIVTLGATPGNPYGHVVIVEAVDGDRLTILEQNYGGKRYPVRNYYSAASYRQQVVHYITPPGTVAQSAPNLAGSRSYRETGTMTVTVDALNVRRAPNTSGEIVAVYKRGESFDYDTVIIDVNGYVWVSYIGGSGKRNYVATGATKDGKRFGNAWGTFK
Which “survival of mixed infection” value [1] does the source give for B2 here?
The value was 92%.

What about the “survival of mixed infection (mice surviving/total)” value [1] of the same molecule?
The value was 22 of 24 and 22/24.

What about the “drop of CFU's of MRSA compared with control rats” value (MRSA) of the same molecule?
Its value is 3-4 logs.
